B1: C-terminal octapeptide of Hsp70 (GPTIEEVD) [not stated] / TPR domain of AtToc64 with a C-terminal hexa-histidine tag (AtToc64_TPR-H6) [Arabidopsis thaliana] (parent complex)
chain 1: GPTIEEVD
chain 2: AEIAKEKGNQAFKEKLWQKAIGLYSEAIKLSDNNATYYSNRAAAYLELGGFLQAEEDCTKAITLDKKNVKAYLRRGTAREMLGDCKGAIEDFRYALVLEPNNKRASLSAERLRKFQ
B2: C-terminal octapeptide of Hsp90 (TSRMEEVD) [not stated] / TPR domain of AtToc64 with a C-terminal hexa-histidine tag (AtToc64_TPR-H6) [Arabidopsis thaliana] (parent complex)
chain 1: TSRMEEVD
chain 2: B1 chain 2

Variants of: B1
Assay: ITC; parent: 2.3e+05 nM

| Variant | Kd [µM] |
| --- | --- |
| chain 1 GPTAEEVD [chain 1 I4A] | 4600 |

Variants of: B2
Assay: ITC; parent: 2.18e+05 nM

| Variant | Kd [µM] |
| --- | --- |
| chain 1 TSRMEEVA [chain 1 D8A] | 1400 |
| chain 1 TSRAEEVD [chain 1 M4A] | 1080 |
| chain 1 TSRMEAVD [chain 1 E6A] | 1900 |
